According to patent US20220267453A1 (SAITAMA MEDICAL UNIVERSITY, published 2022):
Positions count from the first letter of the chain named. Blank lines part the entries; values can stand above or below the binder they belong to.

Columns and labels:
[1] = target: T1, Human ALK2-His (Cat. #10227-H088) from Sino Biological Inc. (human, UniProt Q04771 21-123); test: ELISA of hybridoma culture supernatant on antigen immobilized at 1 µg/ml (selection of hybridomas)
T1 construct: Bought recombinant protein; also called the antigen; not shown: His tag
T1 sequence: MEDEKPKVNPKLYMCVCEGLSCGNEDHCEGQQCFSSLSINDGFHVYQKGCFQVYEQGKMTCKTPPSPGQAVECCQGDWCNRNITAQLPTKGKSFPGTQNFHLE
Method: One week after the cell fusion, using each culture supernatant, clones recognizing human ALK2-His used as the antigen were selected by the enzyme-linked immunosorbent assay (ELISA), and clones recognizing human ALK1-His (Sino Biological Inc.) were excluded. ELISA was performed as follows.
First, the antigen diluted to 1 μg/ml with PBS was immobilized onto a 96-well ELISA plate (NUNC, Cat. #442404) for 2 hours at room temperature or overnight at 4° C. The immobilized solution was removed, and the plate was blocked with a 0.5% skim milk solution dissolved in PBS for 30 minutes at room temperature. Next, the above-described culture supernatant of hybridomas was added, and the plate was left for 1 hour at room temperature. After the plate was washed, an ALP-labeled anti-rat IgG antibody (SAB, Inc.) diluted with a 0.5% skim milk solution to 1:2500 was added, and the plate was further left for 1 hour at room temperature. After the plate was washed, a phenyl phosphate substrate was reacted at room temperature, and then absorbance at a wavelength of 492 nm was measured.

[2] = target: T2, human ALK2-EGFP expressed in HEK293A cells (human, UniProt Q04771 21-509); test: conclusion from flow cytometry competition with labeled A2-27D on HEK293A cells expressing human ALK2-EGFP
T2 construct: also called pcDEF3/human ALK2-EGFP; not shown: EGFP fused to ALK2
T2 sequence: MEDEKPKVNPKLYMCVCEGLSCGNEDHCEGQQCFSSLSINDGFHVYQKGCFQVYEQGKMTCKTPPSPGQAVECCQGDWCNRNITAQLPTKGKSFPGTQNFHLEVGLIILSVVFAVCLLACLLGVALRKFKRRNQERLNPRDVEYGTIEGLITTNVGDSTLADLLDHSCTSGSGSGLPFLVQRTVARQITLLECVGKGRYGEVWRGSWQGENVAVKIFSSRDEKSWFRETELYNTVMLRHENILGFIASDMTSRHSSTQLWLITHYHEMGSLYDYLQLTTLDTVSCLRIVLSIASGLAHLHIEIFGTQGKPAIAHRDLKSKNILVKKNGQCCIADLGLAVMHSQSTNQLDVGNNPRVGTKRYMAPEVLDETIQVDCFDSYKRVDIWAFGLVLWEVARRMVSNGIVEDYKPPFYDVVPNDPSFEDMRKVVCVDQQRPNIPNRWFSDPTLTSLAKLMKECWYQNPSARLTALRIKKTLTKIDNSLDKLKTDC
Method: In the same manner as in Example 3, HEK293A cells were transiently transfected with pcDEF3/human ALK2-EGFP using Lipofectamine 2000 (manufactured by Thermo Fisher Scientific Inc.). After 2.5 hours, the medium was replaced with fresh 10% FBS-containing DMEM medium, and the cells were cultured overnight. On the following day, […] each of the cell suspensions adjusted to 1×10⁶ cells/mL was dispensed into a 1.5-mL microfuge and centrifuged at 500 g for 5 minutes, and then the supernatant was removed. To the cells, 100 μL of a mixed solution of Alexa fluor 647-labeled A2-27D diluted to 1 μg/mL and 10 μg/mL purified IgG was added, and the cells were left for 30 minutes at 4° C. After the cells were washed with PBS three times, fluorescence was detected by a flow cytometer (BD Accuri C6; manufactured by BD Biosciences). The intensity of EGFP expressed by the cells and the fluorescence intensity of stained Alexa flour 647 were plotted.

[3] = target: T3, human ALK2(WT)-V5-His expressed in HEK293A cells (human, UniProt Q04771 21-509); test: conclusion from BMP-specific luciferase reporter assay in transfected HEK293A cells
T3 construct: Full-length receptor overexpressed by transient transfection; also called pcDEF3/human ALK2(WT)-V5-His; human ALK2(WT)-VS-His; not shown: V5-His tag of the pcDEF3 construct
T3 sequence: T2 sequence

[4] = target: T4, mouse ALK2(WT)-V5-His expressed in HEK293A cells (mouse, UniProt P37172 21-509); test: as above
T4 construct: Full-length receptor overexpressed by transient transfection; also called pcDEF3/mouse ALK2(WT)-V5-His; not shown: V5-His tag of the pcDEF3 construct
T4 sequence: T2 sequence with M1V, P10Q, L121I, D162E, P310S

[5] = target: T5, rat ALK2(WT)-V5-His expressed in HEK293A cells (rat, UniProt P80201 21-509); test: as above
T5 construct: the end 509 for rat is meant as the end of the entry; also called rat wild-type ALK2; pcDEF3/rat ALK2(WT)-V5-His; not shown: V5-His tag of the pcDEF3 construct
T5 sequence: T2 sequence with K5E, I39V, H44R, I83V, Q86R, T97S, L118F, L121I, D162E, P310S

[6] = target: T6, ALK2 expressed in mice (C57BL/6 mouse newborn organs, tissue sections) (mouse, UniProt P37172 21-509); test: immunohistological staining of frozen sections of mouse newborns; 10 µg/ml primary antibody
T6 construct: Endogenous protein in paraformaldehyde-fixed frozen or paraffin sections of mouse newborns; not a purified protein; also called mouse ALK2 (endogenous)
T6 sequence: T2 sequence with M1V, P10Q, L121I, D162E, P310S
Method: C57BL/6 mouse newborns were each fixed in a 4% paraformaldehyde-phosphate buffer solution for 2 days and then freeze-embedded in O.C.T Compound (manufactured by Sakura Finetek Japan Co., Ltd.), and frozen sections were prepared with a thickness of 5 μm using a cryostat (manufactured by Leica Biosystems Nussloch GmbH, Cat. #CM3050S). The sections were washed with PBS three time and reacted with an endogenous enzyme activity blocking solution (manufactured by Vector Laboratories, Inc., Cat. #SP-6000) for 10 minutes. […] On the following day, the sections were washed with PBS-T three times and reacted with HRP-conjugated anti-rat IgG antibody ImmPRESS Reagent (manufactured by Vector Laboratories, Inc., Cat. #MP-7444) as a secondary antibody for 30 minutes at 37° C. Then, the sections were washed with PBS-T three times, and DAB color development (manufactured by Vector Laboratories, Inc., Cat. #SK-4100) was performed. After washing with distilled water, the sections were counter-stained with hematoxylin, mounted on a glass cover according to a standard method, and observed under BZ-9000 (manufactured by Keyence Corp.).

binding result [1]: binds | binding result [2]: binds | binding result [3]: binds | binding result [4]: binds | binding result [5]: binds | binding result [6]: binds
B1: rat anti-human ALK2 monoclonal antibody produced by the hybridoma #200 (antibody, V domains shown)
VH: QVKLLQSGAALVKPGDSIRMSCKASGYTFTDYIIHWVKQSHGKSLEWIGYINPYSGGTNYNEKFKSKATLTVDKSSSTAYMEFCRLTSEDSAIYYCVRRGHDGTGFDYWGQGVMVTVSS
VL: DVVMTQTPVSLPVSLGGQASISCRSSQSLVHSNGETYLHWYLQKPGQSPQLLIYRVSNRFSGVPDRFSGSGSGTDFTLKLSRVEPEDLGDYYCLQSTHLPLTFGSGTKLEIKR
notes: Rat monoclonal antibody from a hybridoma; also called clone #200; ALK2_#200

binding result [1]: binds
B2: rat anti-human ALK2 monoclonal antibody produced by the hybridoma #109 (antibody, V domains shown)
VH: EVQLVESGGDLVQPGRSMKLSCAASGFTFSNYGMAWVRQAPTKGLEWVATISYDGSGTYYRDSVEGRFTISRDNAKITLYLQMNSLRSEDTATYYCTRHGYSRVPYFDYWGQGVMVTVSS
VL: NIVLTQSPATLSVTPGESVSLSCRASQSISTNIHWYQQKSNESPRLLIKYASQSISGIPSRFSGSGSGTDFTLTINRVESEDFSIYYCQQSYSSQLTFGSGTKLEIKR
notes: Rat monoclonal antibody from a hybridoma
